In the data set the target is T1, HMO1 (Saccharomyces cerevisiae, UniProt Q03973 1-246).
T1 sequence: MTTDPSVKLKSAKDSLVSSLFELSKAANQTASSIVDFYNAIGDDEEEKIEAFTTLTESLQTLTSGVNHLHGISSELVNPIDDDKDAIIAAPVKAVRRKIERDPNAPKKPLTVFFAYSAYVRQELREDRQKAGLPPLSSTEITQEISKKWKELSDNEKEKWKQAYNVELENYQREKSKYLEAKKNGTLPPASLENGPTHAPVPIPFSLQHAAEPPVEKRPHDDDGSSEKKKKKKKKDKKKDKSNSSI
As to the kind of experiment: EMSA; apparent Kd from Hill fit of free DNA; 6 nM DNA; EMSA: 17 mM HEPES pH 7.6, 2 mM Tris-HCl, 0.8 mM Na3EDTA, 0.11 mM 2-mercaptoethanol, 11 mM NaCl, 1.1% glycerol, 12% sucrose; 6 nM DNA, 10-800 nM HMO1, 30 min at. The conditions noted are these: protein: recombinant, tags: N-terminal His6 (pET15b), blunt.

B1: RO duplex (randomized sequence) (dsDNA)
DNA 1: CTATCGGCACACTTCACGGCACAC
DNA 2: GTGTGCCGTGAAGTGTGCCGATAG
On to B1, for which, under “label: 5'-Cy3 on strand 1 (S3)”, the Kd was determined as 128 nM.

B2: SO duplex (IFHL site) (dsDNA)
DNA 1: ACTACGCTCTAGGCAGAGTTCACC
DNA 2: GGTGAACTCTGCCTAGAGCGTAGT
On to B2, for which the Kd (label: 5'-Cy3 on strand 2 (S6)) amounted to 62 nM.
